# Results as given in the supplement of paper PMC12636428.
# Test system: Saccharomyces cerevisiae
# Assay: transcriptional activation domain activity (GFP:mCherry ratio, weighted mean of sorted bins, harmonized to initial dataset scale) (arbitrary fluorescence ratio units); higher = stronger transcriptional activation
# Conditions: beta-estradiol 1 µM; induction time 4 h
# Outline: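 Barcoded protein tiles fused to an estradiol-inducible synthetic transcription factor were integrated at the yeast URA3 locus, in diploids carrying a GFP reporter. Cultures were diluted 1:5 into SC with 1 uM beta-estradiol, held 4 hours at 30 °C, sorted into 8 bins by GFP:mCherry ratio, and barcodes sequenced. Tiles under 50 reads were discarded. Activation activity is the read-weighted mean of bin median fluorescence, averaged across barcodes, then linearly mapped onto the initial dataset scale.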
sequence,measurement,value
EGEAPKAEEEEEKDAAPDGEGEQPAEADPEEEERQRRAAIAARMARLGGARLG,transcriptional activation domain activity,14200
EGEDALTLPLIISSQALLVVPPEKIVALPLQQMLSLVVRAITQAFVHGAFISR,transcriptional activation domain activity,67100
EGEEDKPKAARGRKRKADADAEEPPAKKTKPASKAAPGSKPASKAAASKPASK,transcriptional activation domain activity,25400
EGEEGEEGEEGEEGEEGTCCASPLQSLALSRLRLGLSLLVDCISIESMRTYRL,transcriptional activation domain activity,34500
EGEGAADPAAGAGAGAEEDGEEEEDEGAADPAAGAGAGDEEGEGAAEEGAAES,transcriptional activation domain activity,17600
EGEGEEEAVTLKKTKKGRGGEEEAAKKGKKKGDEEDPAWEEAAAKKGKKKGEE,transcriptional activation domain activity,37800
EGEKKDQESDEKESNEEKKDDVEKLTKEMDKVTIKGEKKILGKSKGFGFVCFS,transcriptional activation domain activity,7730
EGEREREREGEEMEEVMREGTNREEKKEEEEEGKRKDKRRKETGNLLLLLVVV,transcriptional activation domain activity,40400
EGEVTTTSSEEETTTEEETTRTRPTRTTTTEEEQTTTDASSTTTSQDEETTTP,transcriptional activation domain activity,39200
EGEYKTLATDDLGNILNLNYGETNEVIMNEINDLNLPLGPLSDEKSVKVSTFS,transcriptional activation domain activity,84800
EGGADGEEEEDGEEEVKEKVPAKRGRKPRGERVEEVSSPAAPVRGKKAKPTTA,transcriptional activation domain activity,41200
EGGEGGDGAGGDGAAAGGKDGEGGKGGGKEEKGGKAGKDAKGGAKKPGSGKKG,transcriptional activation domain activity,16500
EGGEGGSGSGSGGNAKTRRKGRRRGSSRDGAGAGAGAGAGEGAGGEVGRSKKK,transcriptional activation domain activity,7430
EGGEKGGHGGKEGGEGGEGGEGGEEGGHGGHWGHKKHGHGGGKQKGGWGHHGY,transcriptional activation domain activity,45300
EGGEKGTKEGGEKKEGAGEKEGGEKKEGGEKEGAKEGGEIGAKEGEEKKEGGE,transcriptional activation domain activity,17500
EGGRQRERAGGAGGEDSKGEGRREERREEGKGGKGSAEERESREGSARGGEAG,transcriptional activation domain activity,10200
EGKEERGKGGEGEGGEGGEGERRDGKREGREGNGNRGGTEGKGERRKRKSQRE,transcriptional activation domain activity,28700
EGKGKKGEKREREKRRGRGGKREKRRKREGRRRREKREGKEGGGEKEEKEGEE,transcriptional activation domain activity,29000
EGKKREEEEGRRKEGGTEEDREREPKRGDRRSRGKAGQSPEARERGTGGQGRR,transcriptional activation domain activity,37200
EGKPVAAEGVKDSWDASSDEEGSNPAPAPAPAAKAKPSQKANGTHVPISESQT,transcriptional activation domain activity,40500
EGKTRESKQKQGRERIGKGKGSREKGERREEEEGKGGKRRAGRKEGEWRSRGS,transcriptional activation domain activity,32400
EGLGTAWLFKKEDLLCKSAYEIATISNSWLCGVQGTLLMYLVLVLLCLSFFLI,transcriptional activation domain activity,30800
EGLYKCRYGSYFIELSRYSFFFAMFLFFLRAGWYPFSAFWLGCFWHQLVFTAH,transcriptional activation domain activity,40800
EGPPSPDKGKAEDEKNEKPQANTAKKAKPTEEKKVGEGKKAAAGTGGAGAKKE,transcriptional activation domain activity,23200
EGRRASRRKARGKSGADTPGTSEDEGVGGTSKSKPRKKRKLERKSKDAGKFKS,transcriptional activation domain activity,27600
EGSARGGEAGKKEERQADEKEHKGRARPGRGEKDGGGRGRREEERDRKEQNGG,transcriptional activation domain activity,34000
EGSEEKKERSRRHGDSDRRERRRHRSGSRSRDHDRDRERRHRRHRRSRSRDKE,transcriptional activation domain activity,13400
EGSERESKGSEREGEGSEREGKRNEREGKRGERGGERVGERGSEKVGERGSEK,transcriptional activation domain activity,22700
EGSGEEAGGEGSGGEEDEEDEAGGGGDDADGRRGEDDGADEGTAGARAAAKAA,transcriptional activation domain activity,34900
EGSSSGEEESSEEEEAAPRREDAAAARQKAADEMIEEQIKRDLAARAAGKKHW,transcriptional activation domain activity,30100
EGTGYITVSSGTRYVRLVGARGEEGEGVFGGGRRRRVEVVDFSRARVRAAQIG,transcriptional activation domain activity,49000
EGYDLLPFRLGCAYVVLGWYWISTTWVEAEPVSQGVKPPKDRDYFHRVKLRFD,transcriptional activation domain activity,42200
EHFAGNNHVNRVVNFVQSCFTFYAPKMCKYYTEILQALFSQPTWWMVCCCGFW,transcriptional activation domain activity,46200
EHHLLKALVDVIKRAMLISAQGASGRFEAKDLHLEHMIYWLKYFLNRAVCIAL,transcriptional activation domain activity,62700
EHIEVDLTGIEEVTTGAGLLSRTRTSRHCFLHKTKVLQILDMKCTHDHPSPSS,transcriptional activation domain activity,29800
EHPARARVDKNRTKTSAREVHPARAAREEHPARAYADKNRTKTSARDVHPAGA,transcriptional activation domain activity,40400
EHQCATIQLDFQLPQQFNLEYMTSEKAPAAKIEAAPKTETAPKAEAPAAAPAA,transcriptional activation domain activity,42500
EHRVMSAKIKAGELIDNGRFVDEKSFEKPPIHFHLICDHNIRVLLIIIHHSLY,transcriptional activation domain activity,21300
EHSTTGDSWFLGLVLCYPLRSYGYFMLFFIWLRLFLVLAFQFLLYACNYLFIL,transcriptional activation domain activity,62200
EHVFLVYFFIFTMQEFAGELVSLVDVMRRIYSLDQARANRAHWWKWIFRCWLH,transcriptional activation domain activity,58900
EHVHVNKIPVRVSHGSGFELMGKSSFIFKGFRSLGILMLIFWSKANHILIVTV,transcriptional activation domain activity,70700
EIAEGDEAEAARPAKIPRKPRRKKAVEGEGANEEGGAAPPRPKRKRKTKSKSA,transcriptional activation domain activity,42100
EIAVEEPAQPMDVDGAVEAETDATTSKQDKKDKKKKKKASKESKVEAEPEAAA,transcriptional activation domain activity,48700
EIDEAAGEINEAAGEVNEAGEVDKAGEVDEAGEVNDEAGKIDKAAGEIDEAAG,transcriptional activation domain activity,30600
EIESVVMLYVSGRLLRIIEVGLVEGRPDVQAIVQALVARLICVTVSATAKWAR,transcriptional activation domain activity,36000
EIFSSYNASMVQESAGIDFLDFAMPDLIAEANDWAFQGVDSAFFDSVMAGYTL,transcriptional activation domain activity,147000
EIGALMLLSKTLEDNPNRLGSLVRILTLKCFIPQSYFKLMVRRLNILFSCCSR,transcriptional activation domain activity,64300
EIGPDGEVKKKYDPKDPMRPRRKKARRACFACQRAHLTCGDERPCQRCIKRGL,transcriptional activation domain activity,53300
EIKEATGEEHQEEQEDAIDSKEKVVMQSCPEVSLRRIRRLLRKHKGDPNKVID,transcriptional activation domain activity,27300
EIKGDLTMTNLVTNFGFSIRWTHNLFEHLSIDWVGRVITIYEDKICLWNHLRF,transcriptional activation domain activity,43500
EILHLMVDRDLFLLLAIDGIMCLATSFGFLLQKAIVHDCLTWNGSGWIIQSLW,transcriptional activation domain activity,68500
EIPIQLGCIHLHSLWMTYALLYQLIYPMMMIYNLVNCIYFGSGLQIAWWMFSI,transcriptional activation domain activity,44200
EITNDESVEAHKEEQAVEAKEGSPEIAAEAEAEEGGAKPAEESKKPRKLIEEE,transcriptional activation domain activity,12500
EIVDPMQSWLPFQPEASDNVLPDENFFLDDSLFTFGDTLTPNFGPVEWYDLLA,transcriptional activation domain activity,140000
EKAGEEEKAGEEEKAAEEEKSAEEEKAAKEEEMKAMEKSKAEKEASSEEPKAE,transcriptional activation domain activity,35700
EKAKPAEEPKPAAEPAPAEEKAAEPETQPESKPAEELSSPTEEPAPIEEAKPA,transcriptional activation domain activity,15800
EKDKENDKGEKGEGEKKGENRRGRRRGGRGRGGGGDKDKEKEKDGGGGGGAKR,transcriptional activation domain activity,47000
EKDKGEPADGAAAPVVKRKRGRPPNKDRNKPPPAPAPAPPPAGASASTPASRL,transcriptional activation domain activity,33400
EKDKKEETKDEPKKNEVKPETKDDVDEKKDENGRPKLVVKRLRKETTAAAAVA,transcriptional activation domain activity,37600
EKEARHAGRESRKAPEVREHRSSRRKDKERERSARPDNERRKTHVDGEDPEER,transcriptional activation domain activity,23800
EKEAVVKDTASSTRAKTTRSKPKAAPAAAEPPKTATRGRGAAKLAADKPAPKT,transcriptional activation domain activity,23400
EKEEAEKKKKEEAEEKEKEKEKKEKKGGKKKRASKKSSRKSKSKEAAGSGADE,transcriptional activation domain activity,25500
EKEEDAQLRDRHRGRHSVDRDLHRRGGRVRDRSRGERSLRNQPRAAGAGAAAG,transcriptional activation domain activity,57600
EKEESDEDESEKGSAAGGRGKAALKTWVKRVRLIRDKGTLLGKGFGYVQFNDR,transcriptional activation domain activity,69000
EKEGKRRSLQKASTSKASSKTLHFMECKVVPEQPLLRIRWSSLTHGALMLYNG,transcriptional activation domain activity,49300
EKEKERKHKHRSRRDRSRSRDSDGGRDRRHRHRRDRSRSRDAHDDRERRHRHS,transcriptional activation domain activity,19000
EKERGRERERKERKVNGAWIKTKPKKRRDDSARARRHTRRRDVSSSASPTREM,transcriptional activation domain activity,25800
EKESVCYKLRLNRDSLSIMKDFLACKHEHDPSLIVLAHVLLYKVTATFVKAVS,transcriptional activation domain activity,53500
EKEVEGNKNNEEDKPEENEEKDGEDKDAKEKGEEDEDEEDRDQDQEDEDQEGR,transcriptional activation domain activity,11800
EKGEEGGSGGEGGEGRRGGQARGTGRRAGQEGKGPGKGEGGAARRRKEGEARK,transcriptional activation domain activity,54500
EKGEGDKNRRGRRRGGRGRGGGGDKDKEKDKEGGGGGGRGERKTEGSGGISAQ,transcriptional activation domain activity,42000
EKGGGRDGETAAVEGEKEVQNGDAQTEADGNASTDGGTKRRRKGKKAAAEADD,transcriptional activation domain activity,24100
EKGGRDKDKDGRPANAKPKSKPHGKTPKPQQQRDGKKSATLKENAAPAAPAAA,transcriptional activation domain activity,24800
EKGKSIWIGRDNLEVNVETLALQWYEDQGFKGIHSETRIITTLFGILFWDIIF,transcriptional activation domain activity,55900
